Residue numbers refer to the chain shown, from its start.
How the values were obtained:
[1] = target: T1, human IL-4 (recombinant E. coli-expressed) (human, UniProt P05112 25-153); experiment: cell-based or functional assay
T1 sequence (looked up): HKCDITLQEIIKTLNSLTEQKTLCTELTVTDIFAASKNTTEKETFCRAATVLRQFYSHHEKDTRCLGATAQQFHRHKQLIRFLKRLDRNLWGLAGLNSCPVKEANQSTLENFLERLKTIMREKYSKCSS

[2] = target: T2, human IL-13 (recombinant E. coli-expressed) (human, UniProt P35225 35-146); experiment: Biacore T100 SPR, mAb (supernatant) captured on anti-human IgG, IL13 analyte, 1:1 fit
T2 construct: also called hIL-13
T2 sequence (P35225 other isoform, or with tags, fused parts or gaps limits assumed): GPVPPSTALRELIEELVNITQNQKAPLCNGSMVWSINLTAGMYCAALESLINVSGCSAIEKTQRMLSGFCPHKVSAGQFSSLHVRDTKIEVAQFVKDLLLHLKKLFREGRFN
From the text: (§1) Table 1 details the overall affinities (equilibrium dissociation constant KD) for the selected constructs from the ProteOn screen and the T100 run

[3] = target: T2, human IL-13 (recombinant E. …); experiment: ProteOn XPR36 SPR, mAb (supernatant) captured on anti-human IgG, IL13 analyte, 1:1 fit
Protocol: The initial screen of CDRH3 mutants was carried out on the ProteOn XPR36 (Biorad). […] 3M MgCl₂ was used to regenerate the capture surface, removing the bound CDRH3 mutant antibodies ready for another cycle of capture and analyte injection. The data was fitted to the 1:1 model using the software inherent to the machine.

[4] = target: T2, human IL-13 (recombinant E. …); experiment: cell-based or functional assay
[5] = target: T2, human IL-13 (recombinant E. …); experiment: Biacore T100 SPR, purified mAb captured on anti-human IgG, IL13 analyte, 1:1 fit
From the text: as §1

[6] = target: T2, human IL-13 (recombinant E. …); experiment: as above; remark: listed apart in the source
From the text: as §1

[7] = target: T2, human IL-13 (recombinant E. …); experiment: cell-based or functional assay; remark: listed apart in the source
[8] = target: T2, human IL-13 (recombinant E. …); experiment: Biacore T100 SPR, Protein A capture (CM5), 1:1 fit; paragraph 260 calls Table 21 IL4, the values match IL13 (tables seem swapped)
Protocol: Protein A was immobilised on a CM5 chip by primary amine coupling; this surface was used as a capture surface for the antibody molecules to be tested. […] Regeneration the Protein A surface was with 50 mM NaOH. The assay was run at 25° C. using HBS-EP as running buffer. The data was fitted to 1:1 model inherent to the Biacore T100 analysis software.

[9] = target: T1, human IL-4 (recombinant E. …); experiment: direct binding ELISA, plate coated with 5 ug/ml human IL-4, anti-human kappa light chain-HRP detection, absorbance at 490 nm
Protocol: 96-well high binding plates were coated with 5 μg/ml human IL-4 (made at GSK) in NaHCO₃ and stored overnight at 4° C. The plates were washed twice with Tris-Buffered Saline with 0.05% of Tween-20 (TBST). 100 μL of blocking solution (1% BSA in TBST buffer) was added in each well and the plates were incubated for at least one hour at room temperature. The mAbdAbs were successively diluted across the plates in blocking solution. After one hour incubation, the plates were washed three times. Goat anti-human kappa light chain specific peroxidase conjugated antibody (Sigma A7164) was diluted in blocking solution to 1 μg/mL and 50 μL was added to each well. The plates were incubated for one hour. After another three washing steps, 50 μl of OPD (o-phenylenediamine dihydrochloride) SigmaFast substrate solution was added to each well and the reaction was stopped after about 5 minutes by addition of 25 μL of 3M sulphuric acid. Absorbance was read at 490 nm using the VersaMax Tunable Microplate Reader (Molecular Devices) using a basic endpoint protocol.

[10] = target: T1, human IL-4 (recombinant E. …); experiment: Biacore T100 SPR, Protein A capture (CM5), human IL4 analyte, 1:1 fit; footnote: impossible on-rate
Protocol: Protein A was immobilised on a CM5 chip by primary amine coupling; this surface was used as a capture surface for the antibody molecules to be tested.
All binding curves were double referenced with a 0 nM injection (i.e. buffer alone). Regeneration of the Protein A surface was with 50 mM NaOH. The assay was run at 25° C. using HBS-EP as running buffer. The data was fitted to 1:1 model inherent to the Biacore T100 analysis software.

[11] = target: T2, human IL-13 (recombinant E. …); experiment: Biacore T100 SPR, Protein A capture (CM5), human IL13 analyte, 1:1 fit
Protocol: (§2) Protein A was immobilised on a CM5 chip by primary amine coupling; this surface was used as a capture surface for the antibody molecules to be tested. […] All binding curves were double referenced with a 0 nM injection (i.e. buffer alone).
(§3) Regeneration of the Protein A surface was with 50 mM NaOH. The assay was run at 25° C. using HBS-EP as running buffer. The data was fitted to 1:1 model inherent to the Biacore T100 analysis software.

[12] = target: T3, cyno IL-13 (recombinant E. coli-expressed) (cynomolgus, UniProt Q0PW92 21-132); experiment: Biacore T100 SPR, Protein A capture (CM5), cyno IL13 analyte, 1:1 fit; 'Impossible off-rates'
T3 construct: also called cynomolgus IL-13
Protocol: as §2, §3

B1: DOM9-155-154 (other)
VL: DIQMTQSPSSLSASVGDRVTITCRASRPISDWLHWYQQKPGKAPKLLIAWASSLQGGVPSRFSGSGSGTDFTLTISSLQPEDFATYYCLQEGWGPPTFGQGTKVEIKR
For B1, the “Mean ND50 value (nM), TF-1 cell proliferation bioassay” value [1] was 0.98 nM.

B2: A1H100A ArgL1 (antibody, human IgG1, kappa, V domains shown)
VH: QVQLVQSGAEVKKPGSSVKVSCKASGFYIKDTYMHWVRQAPGQGLEWMGTIDPANGNTKYVPKFQGRVTITADESTSTAYMELSSLRSEDTAVYYCARSIYDDYRYDDYYAMDYWGQGTLVTVSS
VL: DIVMTQSPLSLPVTPGEPASISCRSSQNIVHINGNTYLEWYLQKPGQSPRLLIYKISDRFSGVPDRFSGSGSGTDFTLKISRVEADDVGIYYCFQGSHVPWTFGQGTKLEIKR
notes: CDRH3 variant of A1L1
A Kd [2] of 0.307 nM and a Kd [3] of 0.256 nM were found for B2 in this work.

B3: A1Y100B AlaL1 (antibody, human IgG1, kappa, V domains shown)
VH: B2 VH with R105H, Y106A
VL: B2 VL
notes: CDRH3 variant of A1L1
For B3, the “ND50 (nM), TF-1 cell proliferation bioassay” value (“ND50 (nM)” for short) [4] was 0.92 nM, the Kd [5] was 0.031 nM and the koff [5] was 3e-05 s⁻¹. For the same binder, the kon [5] was 960000 M⁻¹ s⁻¹, the Kd [6] was 0.032 nM and the koff [6] was 2.58e-05 s⁻¹. For the same binder, the kon [6] was 810000 M⁻¹ s⁻¹, the Kd [2] was 0.083 nM and the Kd [3] was 0.075 nM.

B4: A1H100A SerL1 (antibody, human IgG1, kappa, V domains shown)
VH: B2 VH with R105S
VL: B2 VL
notes: CDRH3 variant of A1L1
A Kd [2] of 0.174 nM and a Kd [3] of 0.131 nM were found for B4 in this work.

B5: A1Y100B IleL1 (antibody, human IgG1, kappa, V domains shown)
VH: B2 VH with R105H, Y106I
VL: B2 VL
notes: CDRH3 variant of A1L1
With B5 the “ND50 (nM)” value [4] was 1.1 nM, the Kd [5] was 0.049 nM and the koff [5] was 5.58e-05 s⁻¹. It also gave a kon [5] of 1.15e+06 M⁻¹ s⁻¹, a Kd [6] of 0.043 nM and a koff [6] of 4.21e-05 s⁻¹. The kon [6] was 989000 M⁻¹ s⁻¹, the Kd [2] was 0.073 nM and the Kd [3] was 0.075 nM.

B6: A1Y100B TrpL1 (antibody, human IgG1, kappa, V domains shown)
VH: B2 VH with R105H, Y106W
VL: B2 VL
notes: CDRH3 variant of A1L1
With B6 the “ND50 (nM)” value [4] was 1.25 nM, the Kd [5] was 0.063 nM and the koff [5] was 0.000163 s⁻¹. For the same binder, the kon [5] was 2.57e+06 M⁻¹ s⁻¹, the Kd [6] was 0.053 nM and the koff [6] was 0.000125 s⁻¹. The kon [6] was 2.38e+06 M⁻¹ s⁻¹, the Kd [2] was 0.095 nM and the Kd [3] was 0.068 nM.

B7: A1H100A GlnL1 (antibody, human IgG1, kappa, V domains shown)
VH: B2 VH with R105Q
VL: B2 VL
notes: CDRH3 variant of A1L1
A Kd [2] of 0.278 nM and a Kd [3] of 0.195 nM were found for B7 in this work.

B8: A1I96ValL1 (antibody, human IgG1, kappa, V domains shown)
VH: B2 VH with I100V, R105H
VL: B2 VL
notes: CDRH3 variant of A1L1
A Kd [2] of 0.696 nM and a Kd [3] of 0.395 nM were found for B8 in this work.

B9: A1H100A GluL1 (antibody, human IgG1, kappa, V domains shown)
VH: B2 VH with R105E
VL: B2 VL
notes: CDRH3 variant of A1L1
A Kd [2] of 0.195 nM and a Kd [3] of 0.11 nM were found for B9 in this work.

B10: A1H100A ThrL1 (antibody, human IgG1, kappa, V domains shown)
VH: B2 VH with R105T
VL: B2 VL
notes: CDRH3 variant of A1L1
A Kd [2] of 0.211 nM and a Kd [3] of 0.158 nM were found for B10 in this work.

B11: A1Y97PheL1 (antibody, human IgG1, kappa, V domains shown)
VH: B2 VH with Y101F, R105H
VL: B2 VL
notes: CDRH3 variant of A1L1
A Kd [2] of 0.618 nM and a Kd [3] of 0.683 nM were found for B11 in this work.

B12: A1H100A ValL1 (antibody, human IgG1, kappa, V domains shown)
VH: B2 VH with R105V
VL: B2 VL
notes: CDRH3 variant of A1L1
A Kd [2] of 0.152 nM and a Kd [3] of 0.112 nM were found for B12 in this work.

B13: BPC1624 (bispecific antibody, human IgG1, kappa)
heavy: not shown
light: DIVMTQSPLSLPVTPGEPASISCRSSQNIVHINGNTYLEWYLQKPGQSPRLLIYKISDRFSGVPDRFSGSGSGTDFTLKISRVEADDVGIYYCFQGSHVPWTFGQGTKLEIKRTVAAPSVFIFPPSDEQLKSGTASVVCLLNNFYPREAKVQWKVDNALQSGNSQESVTEQDSKDSTYSLSSTLTLSKADYEKHKVYACEVTHQGLSSPVTKSFNRGEC
B13 was tested, and the “ND50 human IL-13, TF-1 cell proliferation bioassay” value [7] was 0.553 nM.

B14: BPC1625 (bispecific antibody, human IgG1, kappa)
heavy: not shown
light: B13 light
In the case of B14, the “ND50 human IL-13, TF-1 cell proliferation bioassay” value [7] is reported as 0.542 nM.

B15: BPC1627 (bispecific antibody, human IgG1, kappa)
heavy: not shown
light: B13 light
In the case of B15, the “ND50 human IL-13, TF-1 cell proliferation bioassay” value [7] is reported as 0.615 nM.

B16: BPC1626 (bispecific antibody, human IgG1, kappa)
heavy: not shown
light: B13 light
With B16 the “ND50 human IL-13, TF-1 cell proliferation bioassay” value [7] was 0.681 nM.

B17: BPC1086 (bispecific antibody, human IgG1, kappa)
heavy: not shown
light: B13 light
notes: also called 829H-GS(TVAAPSGS)3-154 (89Q)
A Kd [8] of 0.051 nM, a koff [8] of 6.57e-05 s⁻¹ and a kon [8] of 1.28e+06 M⁻¹ s⁻¹ were found for B17 in this work. For the same binder, the “EC50 (read off the curve)” value [9] was about 4 nM.

B18: BPC1115 (bispecific antibody, human IgG1, kappa)
heavy: not shown
light: B13 light
notes: mAbdAb; dAb Kabat 89 Y; also called 829H-(TVAAPS)2GS-154 (89Y)
A Kd [10] of 2.29 nM, a koff [10] of 0.329 s⁻¹ and a kon [10] of 1.44e+08 M⁻¹ s⁻¹ were found for B18 in this work.

B19: BPC3214 (bispecific antibody, human IgG1, kappa)
heavy: not shown
light: DIQMTQSPSSLSASVGDRVTITCRSSQNIVHINGNTYLEWYQQKPGKAPKLLIYKISDRFSGVPSRFSGSGSGTDFTLTISSLQPEDFATYYCFQGSHVPWTFGQGTKLEIKRTVAAPSVFIFPPSDEQLKSGTASVVCLLNNFYPREAKVQWKVDNALQSGNSQESVTEQDSKDSTYSLSSTLTLSKADYEKHKVYACEVTHQGLSSPVTKSFNRGEC
notes: mAbdAb with the re-humanised light chain P0
A Kd [11] of 0.093 nM, a koff [11] of 7.18e-05 s⁻¹ and a kon [11] of 775000 M⁻¹ s⁻¹ were found for B19 in this work. It also gave a Kd [12] of under 0.0311 nM, a koff [12] of under 1e-05 s⁻¹ and a kon [12] of 321000 M⁻¹ s⁻¹.

B20: BPC3215 (bispecific antibody, human IgG1, kappa)
heavy: not shown
light: B19 light with I2V, Q3L
notes: mAbdAb with the re-humanised light chain P1
A Kd [11] of 0.064 nM, a koff [11] of 5.23e-05 s⁻¹ and a kon [11] of 822000 M⁻¹ s⁻¹ were found for B20 in this work. For the same binder, the Kd [12] was 0.00955 nM, the koff [12] was 3.13e-06 s⁻¹ and the kon [12] was 328000 M⁻¹ s⁻¹.
